From publication PMC5667506, “Potent and selective inhibition of SH3 domains with dirhodium metalloinhibitors” (Chemical Science, 2015)
“Also recorded” adds a separate entry of the source. Like-named read-outs stand apart in the source and are kept apart here. Values belong to the compound of their own block, whether it stands above or below them. Rh2(OAc)3 = dirhodium(II) triacetate, bound to the side-chain carboxylate

How the values were obtained:
[1] = molecular target: T1, Full-length Lyn kinase (GST-tagged Lyn B) (Homo sapiens, UniProt P07948); assay: Lyn kinase activation assay (ADP-Glo Kinase Assay); type: biochemical; settings: 74 nM Lyn, 5 min
T1 construct: Full-length Lyn kinase (74 nM) was treated with substrate peptide and ATP; purchased Promega
Procedure: We examined phosphorylation of a peptide substrate at low enzyme concentration (0.074 μM) and short reaction time (t = 5 min) to minimize the alternative autophosphorylation activation pathway (Fig. 6). Kinase activation with traditional ligands has typically required high ligand concentrations (∼1 mM) to overcome the intramolecular nature of the SH3–kinase domain interaction.
Fig. 6 Activation of Lyn kinase activity by a metallopeptide, S2E^Rh, and the parent peptide, S2E. […] Full-length Lyn kinase (74 nM) was treated with substrate peptide and ATP. Kinase activity was measured after 5 min in an adaptation of reported methods.[5] See ESI ^† for details.
(§1) All chemical reagents were purchased from Sigma-Aldrich and were used without further purification. […]
Kinase assay. ATP turnover by Lyn was measured using the ADP-GloTM Kinase Assay (Promega) according to the manufacturer’s protocol. Briefly, final concentrations of 72 μM ATP, 74 nM Lyn (GST-tagged Lyn B), and 240 μM substrate peptide (all from Promega) were combined in buffer (40 mM Tris, 50 μM dithiothreitol, 2 mM MnCl2 and 0.1 mg/mL BSA at pH 7.5) with a solution of the desired treatment (or control) in the same buffer for a final reaction volume of 5 µL. The kinase reaction was allowed to proceed at room temp. for 5 min from addition of ATP before the start of the ADP-Glo protocol halted the reaction. Chemiluminescence data were acquired on a Tecan Infinite M1000 microplate reader in white 384 well low volume plates (Corning Costar 3674) with an integration time of 250 ms per well. […]

Lyn SH3 domain = molecular target: T2, Lyn SH3 domain (Homo sapiens, UniProt P07948); assay: ITC binding of metallopeptides to Lyn SH3 domain; settings: 25 °C
T2 construct: The lyn SH3 domain was amplified by PCR using Phusion DNA polymerase; GST (N, cleaved yes); made in house; host or cells: E. coli BL21 (DE3)
Text: The His96 is unique among Src-family sequences, and the His78 appears only in Hck and Lck. Individual amino-acid alterations are the only factors that might distinguish the nearly identical secondary structures and peptide-binding preferences of Src-family SH3 domains (cf. Fig. 1a and b). Based on a Src-family SH3-binding sequence (VSL12),[37] known to bind with similar affinity across Src-family SH3 domains,[38] we made metallopeptides with rhodium in different sites near the beginning of the SH3-binding peptide. […] The optimal metallopeptide, S2E^Rh, bound to Lyn with 6 nM affinity. The accuracy of ITC data is reduced for C values >1000 (C = [protein]/K d). Under these conditions the distribution of data points on the isotherm reduces the precision of the global fit. Since the enthalpic contributions to binding in the formation of the complexes described in this work were high, we were able to use a low protein concentration (4 μM) which ensured that our C values were well below this upper range. […] In broad terms, the thermodynamics—favourable enthalpy and unfavourable entropy—are consistent with previous examinations of peptide–SH3 binding (see Table S1 ^† for thermodynamic data).[39] Moving the location of the rhodium center toward the N-terminus, away from the histidine, led to a drop in binding affinity. The N13D^Rh metallopeptide, a convenient negative control with the rhodium center too far for histidine interactions, binds with micromolar activity, similar to simple SH3 binding of the parent peptide. We conclude that the vast affinity improvement is due to rhodium coordination to unique histidine residue(s).
(§2) All chemical reagents were purchased from Sigma-Aldrich and were used without further purification.
(§3) Peptide synthesis. All peptides were synthesized manually or with an AAPPTEC APEX 396 Automated Multipeptide Synthesizer using standard solid-phase Fmoc protocols.1,2 Peptides were prepared as C-terminal amides using Rink amide MBHA resin (AAPPTEC) and were acetylated at the N-terminus prior to cleavage from the resin. Peptides and metallopeptides were purified by reverse-phase HPLC.
(§4) HPLC separation. Reverse-phase HPLC was performed on a Shimadzu CBM-20A instrument with Phenomenex Jupiter 4μ Proteo 90A (250 × 15 mm preparative) and Phenomenex Jupiter 4μ Proteo 90A (250 × 4.6 mm analytical) columns. The columns were eluted with a gradient of acetonitrile in water (10-90%) (flow rates of 8 mL/min and 1 mL/min for preparative and analytical columns, respectively). Trifluoroacetic acid (0.1%) was added to all eluents. […]
(§5) ITC analysis. ITC experiments were carried out on a VP-ITC instrument (MicroCal) at 25 °C. Titrations of 275 μM peptide into 18 μM SH3 domain proteins were used for all titrations, except for the titration of S2ERh into Lyn SH3 domain, where the lower concentrations of 69 µM S2ERh peptide and 4 µM Lyn SH3 were used to attain a c-value for the titration within the accepted limts for ITC experiments ([…]).3
(§6) Heats of dilutions were measured independently for each experiment by titrating 275 μM peptide into buffer (20 mM phosphate buffer, pH 7, 150 mM NaCl, 1 mM EDTA). All experimental data were fitted using a one set of sites binding model in Origin software (MicroCal) except for the data with Hck SH3 domain. With Hck only, the non-peptide specific binding of dirhodium tetraacetate to Hck SH3 domain could not be treated as negligible, despite the very weak interaction (88 µM), due to the larger enthalpy contribution observed for non-specific binding to this SH3 domain, so the titrations of peptide into Hck were fitted using a 2 set of sites binding model where the stoichiometry for the second set of sites was fixed at 2.0. […]
(§7) Mass spectrometry. ESI-MS was performed on a Bruker Daltonics micrOTOF instrument.
Known compounds and proteins. Several metallopeptides (S2ERh, L3ERh, R5ERh, and 13DRh) were reported previously and […]

Hck SH3 domain = molecular target: T3, Hck SH3 domain (Homo sapiens, UniProt P08631); assay: ITC binding to Hck SH3 domain (two-sets-of-sites fit); settings: 25 °C, high affinity specific site
T3 construct: The hck SH3 domain was amplified by PCR using Phusion DNA polymerase; GST (N, cleaved yes); made in house; host or cells: E. coli BL21 (DE3)
Procedure: as §2, §3, §4, §5, §6, §7
Known compounds and proteins. Several metallopeptides (S2ERh, L3ERh, R5ERh, and 13DRh) were reported previously and were prepared by known protocols;4 alkyne-diazo 3,5 3-azido-7-hydroxycoumarin6 were synthesized following reported procedures; fyn, yes, lck, and src SH3 protein domains were prepared following published procedures.5 Abl, hck, and lyn SH3 domain plasmids were adapted from the previously reported genes;7 the gene templates were obtained from Addgene, ID […]
Table S1. Table of the thermodynamic parameters for binding of metallopeptides to SH3 domains, determined by isothermal […]
Protein Peptide Stoichiometry Kd ΔH -TΔS ΔG
(nM) (kcal mol-1) (kcal mol-1) (kcal mol-1)
* The binding isotherms for metallopeptide interactions with Hck were fitted using a two -sets-of-sites model with the stoichiometry for the second set of sites fixed to 2.0. The second set of binding sites was used to account for the weak, but not negligable, binding of the peptide to another surface of Hck SH3 domain, presumably through non-specific interactions of the dirhodium tetraacetate group. The thermodynamics for the high affinity specific binding site interaction are provided in this

Yes SH3 domain = molecular target: T4, Yes SH3 domain (Homo sapiens, UniProt P07947); assay: ITC binding to Yes SH3 domain
T4 construct: fyn, yes, lck, and src SH3 protein domains were prepared following published procedures; made in house
Procedure: as §2, §3
(§8) HPLC separation. Reverse-phase HPLC was performed on a Shimadzu CBM-20A instrument with Phenomenex Jupiter 4μ Proteo 90A (250 × 15 mm preparative) and Phenomenex Jupiter 4μ Proteo 90A (250 × 4.6 mm analytical) columns. The columns were eluted with a gradient of acetonitrile in water (10-90%) (flow rates of 8 mL/min and 1 mL/min for preparative and analytical columns, respectively). Trifluoroacetic acid (0.1%) was added to all eluents.
(§9) FPLC separation. Analytical FPLC was performed on an ÄKTA instrument with Superdex Peptide PE 7.5/300 column. The column was equilibrated with buffer (150 mM NaCl, 50 mM Tris, pH 7.0) at flow rate of 0.2 mL/min.
as §5, §6, §7
(§10) Known compounds and proteins. Several metallopeptides (S2ERh, L3ERh, R5ERh, and 13DRh) were reported previously and were prepared by known protocols;4 alkyne-diazo 3,5 3-azido-7-hydroxycoumarin6 were synthesized following reported procedures; fyn, yes, lck, and src SH3 protein domains were prepared following published procedures.5 Abl, hck, and lyn SH3 domain plasmids were adapted from the previously reported genes;7 the gene templates were obtained from Addgene, ID

Abl SH3 domain = molecular target: T5, Abl SH3 domain (Homo sapiens, UniProt P00519); assay: ITC binding to Abl SH3 domain; settings: for -TΔS / ΔG / ΔH / Kd: 25 °C
T5 construct: The abl SH3 domain was amplified by PCR using Phusion DNA polymerase; GST (N, cleaved yes); made in house; host or cells: E. coli BL21 (DE3)
Procedure: as §2, §3, §8, §9, §5, §6, §7, §10

Abl = molecular target: Abl; set-up: method as in PMID 8718852; settings: read-out: affinity for Abl; cited from earlier work
Lck SH3 domain = molecular target: T6, Lck SH3 domain (Homo sapiens, UniProt P06239); assay: ITC binding to Lck SH3 domain; settings: 25 °C
T6 construct: fyn, yes, lck, and src SH3 protein domains were prepared following published procedures; made in house
Procedure: as §1, §5, §6
Known compounds and proteins. […]

[2] = Yes SH3, ITC, 25 °C, read-out: SH3 Kd

T3 sequence (P08631 77-139): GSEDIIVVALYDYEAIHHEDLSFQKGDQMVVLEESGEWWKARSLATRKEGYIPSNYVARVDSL
T4 sequence (P07947 91-152 limits assumed): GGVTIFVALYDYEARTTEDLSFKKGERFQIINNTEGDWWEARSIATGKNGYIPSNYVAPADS
T2 sequence (P07948 62-121): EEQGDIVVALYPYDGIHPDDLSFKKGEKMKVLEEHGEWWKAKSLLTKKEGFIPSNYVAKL
T6 sequence (P06239 61-121 limits assumed): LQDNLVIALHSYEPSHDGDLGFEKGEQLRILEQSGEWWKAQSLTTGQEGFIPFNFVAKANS
T5 sequence (P00519 60-121): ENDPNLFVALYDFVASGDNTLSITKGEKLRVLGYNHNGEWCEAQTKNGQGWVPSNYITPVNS
T1 sequence (P07948 1-491 isoform P07948-2): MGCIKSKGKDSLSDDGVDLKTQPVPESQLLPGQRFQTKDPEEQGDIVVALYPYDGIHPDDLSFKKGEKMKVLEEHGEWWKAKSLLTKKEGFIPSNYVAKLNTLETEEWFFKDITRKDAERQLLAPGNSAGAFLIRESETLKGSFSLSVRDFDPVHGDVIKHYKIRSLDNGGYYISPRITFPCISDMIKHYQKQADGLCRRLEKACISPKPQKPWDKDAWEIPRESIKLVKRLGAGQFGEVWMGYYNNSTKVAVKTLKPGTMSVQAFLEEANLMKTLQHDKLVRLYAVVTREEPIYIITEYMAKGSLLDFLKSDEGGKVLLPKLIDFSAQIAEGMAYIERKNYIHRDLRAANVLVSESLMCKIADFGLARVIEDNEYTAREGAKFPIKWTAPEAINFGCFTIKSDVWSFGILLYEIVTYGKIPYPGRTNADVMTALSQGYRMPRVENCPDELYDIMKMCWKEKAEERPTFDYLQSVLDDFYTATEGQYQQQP

- -TΔS (Lyn SH3 domain): 1.0 kcal/mol
- Kd (Lyn SH3 domain): 150000 nM
- ΔG (Lyn SH3 domain): -5.2 kcal/mol
- ΔH (Lyn SH3 domain): -6.3 kcal/mol
- -TΔS (Hck SH3 domain): -1.0 kcal/mol
- Kd (Hck SH3 domain): 89000 nM
- ΔG (Hck SH3 domain): -5.5 kcal/mol
- ΔH (Hck SH3 domain): -4.5 kcal/mol
Compound: CC(=O)[O-].CC(=O)[O-].CC(=O)[O-].CC(=O)[O-].[Rh+2].[Rh+2] [Rh2(OAc)4, reference compound]
- Lyn kinase activation [1]: no activation; also recorded: had no effect on kinase activity

- Kd (Yes SH3 domain; [2]): 3740 nM
- Kd (Lyn SH3 domain): 30 nM
- Kd (Hck SH3 domain): 52 nM
- Kd (Hck SH3 domain; listed as L3ERh): 22 nM
Compound: L3E^Rh: rhodium(II) metallopeptide based on Src-family SH3-binding sequence (VSL12), rhodium at residue 3 (VSEARRPLPPLPN; N-terminal acetyl, C-terminal amide)

- Stoichiometry (Abl SH3 domain): 1.2
- -TΔS (Abl SH3 domain): 5.3 kcal/mol
- ΔG (Abl SH3 domain): -7.0 kcal/mol
- ΔH (Abl SH3 domain): -12.3 kcal/mol
Compound: APTE^RhSPPPPP [p40-Y4E^Rh]

Compound: APTYSPPPPP [p40]
- Kd (Abl): 400 nM

- Stoichiometry (Abl SH3 domain): 1.0
- -TΔS (Abl SH3 domain): 8.9 kcal/mol
- ΔG (Abl SH3 domain): -10.5 kcal/mol
- ΔH (Abl SH3 domain): -19.4 kcal/mol
Compound: E^RhPTYSPPPPP [p40-A1E^Rh]

- Kd (Abl SH3 domain): 0.022 µM
Compound: E^RhPTYSPPPPP (Ac-E(Rh2(OAc)3)PTYSPPPPP-NH2; also: metal complex: Glu1 carboxylate bound to dirhodium(II) triacetate) [p40-A1E^Rh]

- Kd (Lck SH3 domain): 3790 nM
- Kd (Lyn SH3 domain): 152 nM
- Kd (Hck SH3 domain): 51 nM
Compound: R6E^Rh: rhodium(II) metallopeptide based on Src-family SH3-binding sequence (VSL12), rhodium at residue 6 (VSLAREPLPPLPN; N-terminal acetyl, C-terminal amide)

- Kd (Yes SH3 domain; [2]): 1740 nM
- Kd (Lyn SH3 domain): 81 nM
Compound: R5E^Rh: rhodium(II) metallopeptide based on Src-family SH3-binding sequence (VSL12), rhodium at residue 5; catalyst for Yes SH3 modification (VSLAERPLPPLPN; N-terminal acetyl, C-terminal amide)

- Kd (Yes SH3 domain; Yes SH3, ITC, 25 °C, listed as N13DRh, read-out: SH3 Kd): 238 nM
- Kd (Yes SH3 domain; [2]): 301 nM
- Kd (Yes SH3 domain; Yes SH3, unit inferred, read-out: Affinity of designed rhodium(II) metallopeptides (Fig. 1d)): 299 nM
- Kd (Lck SH3 domain): 239 nM
- Kd (Abl SH3 domain): 8.85 µM
- Kd (Lyn SH3 domain): 1200 nM
- Kd (Hck SH3 domain): 544 nM
Compound: N13D^Rh: negative control metallopeptide with the rhodium center too far for histidine interactions (VSLARRPLPPLPD; N-terminal acetyl, C-terminal amide)

- Kd (Lck SH3 domain): 79 nM
- Kd (Hck SH3 domain): 2320 nM
Compound: P12D^Rh: metallopeptide with the rhodium core moved to the 12th residue (VSLARRPLPPLDN; N-terminal acetyl, C-terminal amide)
